In general, pKi refers to −log10 of the Ki, conventionally taken in molar units. Low readings indicate a large Ki, high ones a small Ki. As a reminder, the pIC50 is the IC50 on a negative log10 scale, so that one unit is a factor of ten. Read a high pIC50 as a low IC50.

The record followed here is PMC9726709, “Fluorescently tagged nanobodies and NanoBRET to study ligand-binding and agonist-induced conformational changes of full-length EGFR expressed in living cells” (Frontiers in Immunology, 2022).

In experiment [1] the target is T1, N-terminal NanoLuc-tagged EGFR (NLuc-EGFR) (human, UniProt P00533 25-1210).
T1 construct: ORF from the Kazusa DNA Research Institute; NanoLuc fused to its N-terminus via a Gly-Ser-Ser-Gly linker; signal peptide of IL-6 before NanoLuc; Vector pNKF1-secN CMV; The abstract says HEK293T, the methods HEK293; also called full-length N-terminal nanoluciferase-EGFR; NanoLuc-EGFR; source: HEK293 cells, stably transfected, on living cells; not shown: NanoLuc, N-terminal, kept
Description: FRET or BRET; NanoBRET displacement of 3 nM EGF-AF488 by unlabelled EGFR ligands on living HEK293 cells expressing NLuc-EGFR; added simultaneously, 30 min at 37 °C; HBSS with 0.2% BSA; Ki from IC50 by Cheng-Prusoff; pKi is the negative log10. The settings on record: one partner purified. A general note: Bioluminescence resonance energy transfer reports proximity on the nanometre scale.

Experiment [2] concerns the target T1, N-terminal NanoLuc-tagged EGFR …. Description: cell-based or functional assay.
The target is the same in experiment [3]. The note with it: one partner purified.

B1: heparin binding EGF-like growth factor (ligand, UniProt Q99075 63-148, looked up)
chain: DLQEADLDLLRVTLSSKPQALATPNKEEHGKRKKKGKGLGKKRDPCLRKYKDFCIHGECKYVKELRAPSCICHPGYHGERCHGLSL
notes: the other ligands are human recombinant proteins from R&D Systems; also called HB-EGF; Hb-EGF
B1 returned a negative-log Ki (pKi) in experiment [1] of 8.43. Besides, the “pEC50 for enhancement of the specific binding of 12.5 nM Q86c-HL488 (conformational sensor nanobody) to NLuc-EGFR, NanoBRET on HEK293 cells” value in experiment [2] came out at 9.2. Moreover, in experiment [3], the pIC50 is 8.8.

B2: human recombinant betacellulin (ligand, UniProt P35070 32-111, looked up)
chain: DGNSTRSPETNGLLCGDPEENCAATTTQSKRKGHFSRCPKQYKHYCIKGRCRFVVAEQTPSCVCDEGYIGARCERVDLFY
notes: Betacellulin, human, recombinant; also called BTC; source: bought: R&D Systems (261-CE-010)
In the case of B2, the pKi in experiment [1] came out at 8.45. In experiment [2], the “pEC50 for enhancement of the specific binding of 12.5 nM Q86c-HL488 (conformational sensor nanobody) to NLuc-EGFR, NanoBRET on HEK293 cells” value amounted to 9.17. The negative logarithm of the IC50 (pIC50) in experiment [3] is 9.02.
